The data set can be described thus: protein stability index of a GFP-peptide fusion (GPS, HEK-293T) (PSI 1-6); higher = more stable. Particulars: c terminus: a fixed tail appended.

± gives the standard deviation.
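Note: 24-mer peptide tiles fused after GFP, lentivirally expressed, FACS-sorted into six equal bins by GFP/DsRed ratio, decoded by Illumina sequencing, PSI is the read-weighted mean bin number.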

With QTEELKYSIDQEFLKEYFPIEVVT [NLN], the protein stability index came to 3.23 ± 0.37 (treatment: DMSO) and 3.49 ± 0.29 (treatment: MLN4924 1 uM, 8 h).

Turning to QTYFRQNRDEVLDNLLAFVCDIRP [ATP6V1G1], the protein stability index by setting is: (treatment: DMSO) 2.64 ± 0.44; (treatment: MLN4924 1 uM, 8 h) 2.27 ± 0.23.

Regarding RAAQLQHSEKMAQYLEEERHMREE [CCDC6], the protein stability index is, setting by setting: (treatment: DMSO) 5.15 ± 0.25; (treatment: MLN4924 1 uM, 8 h) 5 ± 0.46.

With RAPSERSGPAASEHSHRSHHSLAS [DVL3], the protein stability index stood at 4.68 ± 0.28 (treatment: DMSO) and 4.68 ± 0.21 (treatment: MLN4924 1 uM, 8 h).

As to RDFHRKILTLPEMMRMFSENLAHH [TRIM15], the protein stability index runs as follows: (treatment: DMSO) 2.25 ± 0.17; (treatment: MLN4924 1 uM, 8 h) 2.31 ± 0.051.

RDNPMCLKCDLQERLLCPSLLAGT [M1AP]: the protein stability index reads like this: (treatment: DMSO) 2.28 ± 0.14; (treatment: MLN4924 1 uM, 8 h) 2.16 ± 0.23.

Sequence RDQQVEAAQRALVEVLGPYEPLLS [RETREG3] registered a protein stability index (treatment: DMSO) of 3.9 ± 0.17 and a protein stability index (treatment: MLN4924 1 uM, 8 h) of 4.14 ± 0.17.

As to REESLPNLLQYVRMPLLTPRYITD [KLHL12], the protein stability index reads like this: (treatment: DMSO) 2.8 ± 0.38; (treatment: MLN4924 1 uM, 8 h) 2.63 ± 0.34.

RELRKPEEPENGEPTAAATARRSK [PWWP2B] returned a protein stability index (treatment: DMSO) of 5.54 ± 0.16 and a protein stability index (treatment: MLN4924 1 uM, 8 h) of 5.51 ± 0.35.

Take RGCSRVEGGGTSLHVACELARPEC [ANKRD9]: the protein stability index is 3.62 ± 0.3 (treatment: DMSO) and 3.69 ± 0.18 (treatment: MLN4924 1 uM, 8 h).

Turning to RGELSARQMHLARFLRMLLRLADE [RAD51], the protein stability index amounted to 2.2 ± 0.27 (treatment: DMSO) and 2.42 ± 0.4 (treatment: MLN4924 1 uM, 8 h).

For the sequence RGQCLLYNWEEERATNHLDQVPSM [SPAG8], the protein stability index runs as follows: (treatment: DMSO) 3.13 ± 0.16; (treatment: MLN4924 1 uM, 8 h) 3.58 ± 0.42.

With RGRAVLREAGFHQYEVSNFARNGA [RSAD1], the protein stability index was determined as 3.36 ± 0.54 (treatment: DMSO) and 3.37 ± 0.48 (treatment: MLN4924 1 uM, 8 h).

RGVHCWVCDESVRKLSSAVRSGIV [PRIM1]: the protein stability index stood at 2.24 ± 0.22 (treatment: DMSO) and 2.19 ± 0.14 (treatment: MLN4924 1 uM, 8 h).

For the sequence RHKSGVHQPPQAGAGDVVLLQREL [LYSMD4], the protein stability index is, setting by setting: (treatment: DMSO) 4.08 ± 0.22; (treatment: MLN4924 1 uM, 8 h) 4.16 ± 0.092.

Consider RHMREENLRLQRKLQREMERREAL [CCDC6], for which the protein stability index was determined as 3.96 ± 0.36 (treatment: DMSO) and 4.39 ± 0.15 (treatment: MLN4924 1 uM, 8 h).

Turning to RHQRIHTGERPYECNECGKAFSRS [ZSCAN9], the protein stability index worked out at 3.29 ± 0.24 (treatment: DMSO) and 3.82 ± 0.31 (treatment: MLN4924 1 uM, 8 h).

In the case of RILQDEQYLMASDMAGKIKLWDLR [DCAF4], the protein stability index (treatment: DMSO) turned out to be 2.75 ± 0.34 and the protein stability index (treatment: MLN4924 1 uM, 8 h) amounted to 3.01 ± 0.12.

On to RITITESNMKSRYTTEFHELEKIG [WEE1], for which the protein stability index stood at 3.03 ± 0.37 (treatment: DMSO) and 3.59 ± 0.55 (treatment: MLN4924 1 uM, 8 h).

RKDLAKLHREVRSTPLTATPGGRG [VTI1B]: the protein stability index by setting is: (treatment: DMSO) 4.38 ± 0.17; (treatment: MLN4924 1 uM, 8 h) 4.45 ± 0.17.

Sequence RKKSKPKKCVKKFVEYCDVNNDKS [SMOC2] displayed a protein stability index (treatment: DMSO) of 3.52 ± 0.22 and a protein stability index (treatment: MLN4924 1 uM, 8 h) of 3.93 ± 0.58.

Regarding RKMEVEELSPLALGRFSLTPAEGD [CDC25B], the protein stability index is 4.66 ± 0.36 (treatment: DMSO) and 4.79 ± 0.13 (treatment: MLN4924 1 uM, 8 h).

Regarding RKVVQSLEQTAREILTLLQGVHQG [TSN], the protein stability index was found to be 2.34 ± 0.31 (treatment: DMSO) and 2.81 ± 0.53 (treatment: MLN4924 1 uM, 8 h).

Take RLFPYSQYYRWLNYGGVIKNYFQH [PRIM1]: the protein stability index runs as follows: (treatment: DMSO) 2.15 ± 0.75; (treatment: MLN4924 1 uM, 8 h) 2.22 ± 0.52.

For RLFTVNDVKVGGSKYGIINLQSLK [DCAF4], the protein stability index stood at 2.14 ± 0.14 (treatment: DMSO) and 2.27 ± 0.37 (treatment: MLN4924 1 uM, 8 h).

Regarding RLLELMNQHDTEMKYYIVHLKRHF [DYRK1B], the protein stability index is, setting by setting: (treatment: DMSO) 2.35 ± 0.22; (treatment: MLN4924 1 uM, 8 h) 2.54 ± 0.48.

On to RLSSRYRYGQLIEINSHSLFSKWF [TRIP13], for which the protein stability index by setting is: (treatment: DMSO) 2.12 ± 0.28; (treatment: MLN4924 1 uM, 8 h) 2.04 ± 0.38.

For the sequence RMKEPSSPPPAPTSSTFGLQDGNL [CHCHD6], the protein stability index is, setting by setting: (treatment: DMSO) 4.63 ± 0.26; (treatment: MLN4924 1 uM, 8 h) 4.53 ± 0.35.

As for RMLIHKTEDVNTLDSEKRTPLHVA [ANKRD44], the protein stability index is, setting by setting: (treatment: DMSO) 4.06 ± 0.22; (treatment: MLN4924 1 uM, 8 h) 4.15 ± 0.39.

On to RNHMENGGDHRYVNNYTNSFGGEW [TRIM29], for which the protein stability index by setting is: (treatment: DMSO) 3.13 ± 0.16; (treatment: MLN4924 1 uM, 8 h) 3.15 ± 0.2.

For RNRPKSTVNTHYFSIDEELVYENF [CDC14A], the protein stability index by setting is: (treatment: DMSO) 2.99 ± 0.37; (treatment: MLN4924 1 uM, 8 h) 3.39 ± 0.38.

In the case of RPDRSSQGGSLPSEEKGHPQEESE [CHGB], the protein stability index amounted to 5.75 ± 0.27 (treatment: DMSO) and 5.48 ± 0.38 (treatment: MLN4924 1 uM, 8 h).

RPEKHTKEQILEFLVLEQFLTILP [ZNF232]: the protein stability index by setting is: (treatment: DMSO) 3.03 ± 0.62; (treatment: MLN4924 1 uM, 8 h) 3.4 ± 0.66.

Take RPFWEEEKTFWKEEKSFWEMEKSF [CCDC70]: the protein stability index runs as follows: (treatment: DMSO) 2.71 ± 0.2; (treatment: MLN4924 1 uM, 8 h) 3.19 ± 0.26.

Consider RPLARPIKRGDILPPEKGREVAKE [RHOBTB1], for which the protein stability index reads like this: (treatment: DMSO) 5.17 ± 0.088; (treatment: MLN4924 1 uM, 8 h) 4.97 ± 0.12.

As to RPPFGAAAVPGTQLSPSPTPASQS [SNAP91], the protein stability index was 4.79 ± 0.16 (treatment: DMSO) and 4.86 ± 0.055 (treatment: MLN4924 1 uM, 8 h).

Take RPPLRRVRMSADAMLKALLGSKHK [TNNI2]: the protein stability index by setting is: (treatment: DMSO) 3.01 ± 0.28; (treatment: MLN4924 1 uM, 8 h) 3.21 ± 0.29.

In the case of RQAELAIERCIFPERIYQGSSGSY [PI4K2A], the protein stability index runs as follows: (treatment: DMSO) 2.72 ± 0.39; (treatment: MLN4924 1 uM, 8 h) 2.82 ± 0.28.

Turning to RQNDILQVVSQGWKYFKGNFYYFS [CD207], the protein stability index by setting is: (treatment: DMSO) 2.3 ± 0.73; (treatment: MLN4924 1 uM, 8 h) 2.06 ± 0.58.

Consider RQNSAPARMLSSNERDSSEPGNFI [CDC25A], for which the protein stability index was 5.54 ± 0.31 (treatment: DMSO) and 5.45 ± 0.14 (treatment: MLN4924 1 uM, 8 h).

With RRDCMWSGFSARERLERAVSDRLA [MYCL], the protein stability index runs as follows: (treatment: DMSO) 3.31 ± 0.23; (treatment: MLN4924 1 uM, 8 h) 3.4 ± 0.18.

Turning to RRKSEAGSGAASSSGEDKENDGFV [CDC25B], the protein stability index by setting is: (treatment: DMSO) 5.42 ± 0.29; (treatment: MLN4924 1 uM, 8 h) 5.49 ± 0.18.

Consider RRRGSDPASGEVEASQLRRLNIKK [TMEM40], for which the protein stability index reads like this: (treatment: DMSO) 5.26 ± 0.23; (treatment: MLN4924 1 uM, 8 h) 5.02 ± 0.24.

In the case of RRRPRQKEAGLSQSHDDLSNATAT [C2CD2L], the protein stability index was 5.23 ± 0.19 (treatment: DMSO) and 5.26 ± 0.24 (treatment: MLN4924 1 uM, 8 h).

For RRTPPGQQRPHPRSHSREPRAERK [ELOA2], the protein stability index amounted to 5.332 ± 0.008 (treatment: DMSO) and 5.58 ± 0.17 (treatment: MLN4924 1 uM, 8 h).

Sequence RSDVEKGGKIIMPPSALDQLSRLN [UFD1] displayed a protein stability index (treatment: DMSO) of 3.55 ± 0.41 and a protein stability index (treatment: MLN4924 1 uM, 8 h) of 3.97 ± 0.28.

As to RSLQLRIQELELQAQIHGLPVPPT [TFE3], the protein stability index was determined as 3.01 ± 0.19 (treatment: DMSO) and 2.89 ± 0.21 (treatment: MLN4924 1 uM, 8 h).

With RSNVDFLETPELTSTMLVPASWWI [NECAB1], the protein stability index was 2.21 ± 0.43 (treatment: DMSO) and 2.23 ± 0.48 (treatment: MLN4924 1 uM, 8 h).

For RTMAPEKLLKSMPILQGQIDALLE [SNAP91], the protein stability index amounted to 2.83 ± 0.16 (treatment: DMSO) and 2.89 ± 0.27 (treatment: MLN4924 1 uM, 8 h).

In the case of RTPLMYCVLADRLDCADALLKAGA [INVS], the protein stability index is, setting by setting: (treatment: DMSO) 2.16 ± 0.35; (treatment: MLN4924 1 uM, 8 h) 2.08 ± 0.15.

Regarding RTRDYKKTSLAPYVKVFEHFLENL [PRIM1], the protein stability index runs as follows: (treatment: DMSO) 2.11 ± 0.4; (treatment: MLN4924 1 uM, 8 h) 2.48 ± 0.54.

For the sequence RTSVGVAVLGGFLYAVGGQDGVSC [KLHL20], the protein stability index is 2.37 ± 0.17 (treatment: DMSO) and 2.45 ± 0.38 (treatment: MLN4924 1 uM, 8 h).

Source of the values: the supplement of paper PMC10567573.
